Test results published in patent US20230250154A1 (CYTONICS, published 2023).

How the values were obtained:
Experiment in all cases: cell-based or functional assay
ADAMTS4 = target: T1, ADAMTS4 (human, UniProt O75173 213-685, limits assumed)
T1 sequence (looked up): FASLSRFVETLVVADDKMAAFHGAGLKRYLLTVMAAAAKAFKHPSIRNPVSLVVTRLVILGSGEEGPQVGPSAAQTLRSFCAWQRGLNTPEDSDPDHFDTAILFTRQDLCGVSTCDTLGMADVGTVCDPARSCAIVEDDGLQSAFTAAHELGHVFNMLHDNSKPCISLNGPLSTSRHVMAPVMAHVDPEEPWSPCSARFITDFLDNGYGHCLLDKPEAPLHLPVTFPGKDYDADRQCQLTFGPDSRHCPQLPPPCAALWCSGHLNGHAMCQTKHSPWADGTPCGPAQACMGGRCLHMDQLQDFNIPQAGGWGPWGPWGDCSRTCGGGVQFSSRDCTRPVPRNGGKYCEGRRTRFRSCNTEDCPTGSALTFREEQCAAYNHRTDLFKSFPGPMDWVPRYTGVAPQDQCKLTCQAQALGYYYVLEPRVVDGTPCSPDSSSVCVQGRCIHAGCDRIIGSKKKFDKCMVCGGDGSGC

ADAMTS5 = target: T2, ADAMTS5 (human, UniProt Q9UNA0 262-622, limits assumed)
T2 sequence (looked up): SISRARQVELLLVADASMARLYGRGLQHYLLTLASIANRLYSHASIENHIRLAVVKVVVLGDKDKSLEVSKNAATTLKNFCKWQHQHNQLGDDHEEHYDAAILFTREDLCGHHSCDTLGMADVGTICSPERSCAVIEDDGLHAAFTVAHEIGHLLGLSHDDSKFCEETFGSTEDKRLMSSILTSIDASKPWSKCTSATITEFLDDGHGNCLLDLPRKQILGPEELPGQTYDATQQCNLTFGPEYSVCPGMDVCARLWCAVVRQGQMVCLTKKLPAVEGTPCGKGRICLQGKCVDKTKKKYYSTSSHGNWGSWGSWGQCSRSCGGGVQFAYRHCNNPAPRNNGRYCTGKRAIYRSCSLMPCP

MMP1 = target: T3, MMP1 (human, UniProt P03956 100-469, limits assumed)
T3 sequence (looked up): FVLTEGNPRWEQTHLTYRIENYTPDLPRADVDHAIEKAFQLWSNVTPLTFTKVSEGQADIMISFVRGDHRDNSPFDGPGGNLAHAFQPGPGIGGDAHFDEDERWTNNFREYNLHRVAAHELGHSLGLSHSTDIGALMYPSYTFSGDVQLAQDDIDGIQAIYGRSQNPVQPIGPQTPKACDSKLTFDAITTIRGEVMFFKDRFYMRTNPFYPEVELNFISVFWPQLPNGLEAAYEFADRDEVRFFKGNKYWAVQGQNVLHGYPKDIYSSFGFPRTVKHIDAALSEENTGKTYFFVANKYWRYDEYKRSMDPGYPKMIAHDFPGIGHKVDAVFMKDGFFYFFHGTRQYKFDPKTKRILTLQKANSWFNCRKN

MMP8 = MMP8 (human, UniProt P22894 101-467, limits assumed)
Chain of MMP8 (P22894 101-467 limits assumed): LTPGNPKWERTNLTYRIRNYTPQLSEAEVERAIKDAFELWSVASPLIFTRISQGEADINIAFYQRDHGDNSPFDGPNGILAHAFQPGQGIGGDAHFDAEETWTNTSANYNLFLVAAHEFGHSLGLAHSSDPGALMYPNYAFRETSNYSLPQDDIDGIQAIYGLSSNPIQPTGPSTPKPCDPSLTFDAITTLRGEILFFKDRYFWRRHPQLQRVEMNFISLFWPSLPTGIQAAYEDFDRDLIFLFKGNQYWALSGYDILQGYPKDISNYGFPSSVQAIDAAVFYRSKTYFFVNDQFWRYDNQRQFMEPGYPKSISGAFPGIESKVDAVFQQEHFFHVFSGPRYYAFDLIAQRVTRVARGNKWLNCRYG

MMP13 = MMP13 (human, UniProt P45452 104-471, limits assumed)
MMP2 = target: T4, MMP2 (human, UniProt P08253 110-660, limits assumed)
T4 sequence (looked up): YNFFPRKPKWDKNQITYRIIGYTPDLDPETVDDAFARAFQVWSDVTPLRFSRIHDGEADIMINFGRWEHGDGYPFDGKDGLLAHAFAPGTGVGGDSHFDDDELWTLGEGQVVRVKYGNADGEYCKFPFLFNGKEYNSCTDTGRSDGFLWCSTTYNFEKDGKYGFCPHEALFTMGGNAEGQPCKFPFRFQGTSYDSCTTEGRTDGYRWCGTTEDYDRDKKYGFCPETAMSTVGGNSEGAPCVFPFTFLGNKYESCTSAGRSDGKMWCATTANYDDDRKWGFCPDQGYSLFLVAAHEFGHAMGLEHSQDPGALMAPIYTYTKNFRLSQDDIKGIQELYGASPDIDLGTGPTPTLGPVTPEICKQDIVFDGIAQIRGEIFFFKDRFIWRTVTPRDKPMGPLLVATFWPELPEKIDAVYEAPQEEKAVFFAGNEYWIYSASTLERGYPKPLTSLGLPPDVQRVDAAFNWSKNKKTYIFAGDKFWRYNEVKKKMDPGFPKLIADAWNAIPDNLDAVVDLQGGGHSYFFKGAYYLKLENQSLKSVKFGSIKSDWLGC

MMP9 = MMP9 (human, UniProt P14780 107-707, limits assumed)
Chain of MMP9 (P14780 107-707 limits assumed): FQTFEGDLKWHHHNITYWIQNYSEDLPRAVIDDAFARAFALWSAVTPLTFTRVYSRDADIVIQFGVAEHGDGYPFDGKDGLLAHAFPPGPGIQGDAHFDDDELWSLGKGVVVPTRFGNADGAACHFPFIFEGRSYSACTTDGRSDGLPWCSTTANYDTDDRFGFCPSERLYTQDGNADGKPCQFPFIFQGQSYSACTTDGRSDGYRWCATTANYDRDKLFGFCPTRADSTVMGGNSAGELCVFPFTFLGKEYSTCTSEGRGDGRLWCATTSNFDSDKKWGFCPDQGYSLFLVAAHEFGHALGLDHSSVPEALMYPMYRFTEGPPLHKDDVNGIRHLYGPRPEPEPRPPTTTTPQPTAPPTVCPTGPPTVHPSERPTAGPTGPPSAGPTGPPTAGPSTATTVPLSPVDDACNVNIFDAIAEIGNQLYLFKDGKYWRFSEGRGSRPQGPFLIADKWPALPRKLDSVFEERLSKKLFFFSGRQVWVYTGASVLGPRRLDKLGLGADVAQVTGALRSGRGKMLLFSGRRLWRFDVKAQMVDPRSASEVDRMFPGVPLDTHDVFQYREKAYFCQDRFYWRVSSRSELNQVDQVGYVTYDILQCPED

MMP3 = MMP3 (human, UniProt P08254 100-477, limits assumed)
Chain of MMP3 (P08254 100-477 limits assumed): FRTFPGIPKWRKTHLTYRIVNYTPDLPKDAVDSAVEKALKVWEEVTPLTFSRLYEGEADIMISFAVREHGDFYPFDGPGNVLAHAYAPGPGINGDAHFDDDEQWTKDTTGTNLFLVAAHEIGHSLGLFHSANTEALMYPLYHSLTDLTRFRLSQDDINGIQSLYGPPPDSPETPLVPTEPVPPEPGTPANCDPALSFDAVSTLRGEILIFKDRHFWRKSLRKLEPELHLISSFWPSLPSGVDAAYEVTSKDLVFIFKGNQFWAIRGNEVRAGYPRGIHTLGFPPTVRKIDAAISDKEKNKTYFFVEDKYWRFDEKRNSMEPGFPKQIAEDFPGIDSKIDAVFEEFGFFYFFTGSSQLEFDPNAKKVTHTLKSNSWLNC

Elastase = target: Elastase
Cathepsin G = target: T5, Cathepsin G (UniProt P08311 21-244)
T5 sequence (looked up): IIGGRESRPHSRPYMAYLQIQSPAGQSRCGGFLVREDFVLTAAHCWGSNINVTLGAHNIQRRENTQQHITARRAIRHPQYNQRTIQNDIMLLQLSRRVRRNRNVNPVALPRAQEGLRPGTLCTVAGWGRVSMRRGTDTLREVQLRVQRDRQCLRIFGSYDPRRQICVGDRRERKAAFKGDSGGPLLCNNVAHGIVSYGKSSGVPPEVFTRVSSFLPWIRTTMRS

MMP7 = target: T6, MMP7 (UniProt P09237 95-267, limits assumed)
T6 sequence (looked up): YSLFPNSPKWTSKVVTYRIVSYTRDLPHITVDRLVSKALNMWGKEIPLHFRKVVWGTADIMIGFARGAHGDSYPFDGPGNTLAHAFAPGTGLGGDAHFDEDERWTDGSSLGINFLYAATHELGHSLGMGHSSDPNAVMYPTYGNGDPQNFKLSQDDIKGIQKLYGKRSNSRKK

B1: Variant A2M, bait region SEQ ID NO 10 (other)
chain: SVSGKPQYMVLVPSLLHTETTEKGCVLLSYLNETVTVSASLESVRGNRSLFTDLEAENDVLHCVAFAVPKSSSNEEVMFLTVQVKGPTQEFKKRTTVMVKNEDSLVFVQTDKSIYKPGQTVKFRVVSMDENFHPLNELIPLVYIQDPKGNRIAQWQSFQLEGGLKQFSFPLSSEPFQGSYKVVVQKKSGGRTEHPFTVEEFVLPKFEVQVTVPKIITILEEEMNVSVCGLYTYGKPVPGHVTVSICRKYSDASDCHGEDSQAFCEKFSGQLNSHGCFYQQVKTKVFQLKRKEYEMKLHTEAQIQEEGTVVELTGRQSSEITRTITKLSFVKVDSHFRQGIPFFGQVRLVDGKGVPIPNKVIFIRGNEANYYSNATTDEHGLVQFSINTTNVMGTSLTVRVNYKDRSPCYGYQWVSEEHEEAHHTAYLVFSPSKSFVHLEPMSHELPCGHTQTVQAHYILNGGTLLGLKKLSFYYLIMAKGGIVRTGTHGLLVKQEDMKGHFSISIPVKSDIAPVARLLIYAVLPTGDVIGDSAKYDVENCLANKVDLSFSPSQSLPASHAHLRVTAAPQSVCALRAVDQSVLLMKPDAELSASSVYNLLPEKDLTGFPGPLNDQDDEDCINRHNVYINGITYTPVSSTNEKDMYSFLEDMGLKAFTNSKIRKPKMCPQLEHGPEGEGLGEGIPENFYGVSEDLVVQISELEGRGSVEEPHTKLRKYFPETWIWDLVVVNSAGVAEVGVTVPDTITEWKAGAFCLSEDAGLGISSTASLRAFQPFFVELTMPYSVIRGEAFTLKATVLNYLPKCIRVSVQLEASPAFLAVPVEKEQAPHCICANGRQTVSWAVTPKSLGNVNFTVSAEALESQELCGTEVPSVPEHGRKDTVIKPLLVEPEGLEKETTFNSLLCPSGGEVSEELSLKLPPNVVEESARASVSVLGDILGSAMQNTQNLLQMPYGCGEQNMVLFAPNIYVLDYLNETQQLTPEIKSKAIGYLNTGYQRQLNYKHYDGSYSTFGERYGRNQGNTWLTAFVLKTFAQARAYIFIDEAHITQALIWLSQRQKDNGCFRSSGSLLNNAIKGGVEDEVTLSAYITIALLEIPLTVTHPVVRNALFCLESAWKTAQEGDHGSHVYTKALLAYAFALAGNQDKRKEVLKSLNEEAVKKDNSVHWERPQKPKAPVGHFYEPQAPSAEVEMTSYVLLAYLTAQPAPTSEDLTSATNIVKWITKQQNAQGGFSSTQDTVVALHALSKYGAATFTRTGKAAQVTIQSSGTFSSKFQVDNNNRLLLQQVSLPELPGEYSMKVTGEGCVYLQTSLKYNILPEKEEFPFALGVQTLPQTCDEPKAHTSFQISLSVSYTGSRSASNMAIVDVKMVSGFIPLKPTVKMLERSNHVSRTEVSSNHVLIYLDKVSNQTLSLFFTVLQDVPVRDLKPAIVKVYDYYETDEFAIAEYNAPCSKDLGNADYKDDDDKGASHHHHHH
Protease Inhibition (% of WT) (ADAMTS4): 159 % of WT | Protease Inhibition (% of WT) (ADAMTS5): 412 % of WT | Protease Inhibition (% of WT) (MMP1): 111 % of WT | Protease Inhibition (% of WT) (MMP8): 38 % of WT | Protease Inhibition (% of WT) (MMP13): 128 % of WT | Protease Inhibition (% of WT) (MMP2): 25 % of WT | Protease Inhibition (% of WT) (MMP9): 16 % of WT | Protease Inhibition (% of WT) (MMP3): 27 % of WT | Protease Inhibition (% of WT) (Elastase): 106 % of WT | Protease Inhibition (% of WT) (Cathepsin G): 134 % of WT | Protease Inhibition (% of WT) (MMP7): 191 % of WT

B2: Variant A2M, bait region SEQ ID NO 9 (other)
chain: SVSGKPQYMVLVPSLLHTETTEKGCVLLSYLNETVTVSASLESVRGNRSLFTDLEAENDVLHCVAFAVPKSSSNEEVMFLTVQVKGPTQEFKKRTTVMVKNEDSLVFVQTDKSIYKPGQTVKFRVVSMDENFHPLNELIPLVYIQDPKGNRIAQWQSFQLEGGLKQFSFPLSSEPFQGSYKVVVQKKSGGRTEHPFTVEEFVLPKFEVQVTVPKIITILEEEMNVSVCGLYTYGKPVPGHVTVSICRKYSDASDCHGEDSQAFCEKFSGQLNSHGCFYQQVKTKVFQLKRKEYEMKLHTEAQIQEEGTVVELTGRQSSEITRTITKLSFVKVDSHFRQGIPFFGQVRLVDGKGVPIPNKVIFIRGNEANYYSNATTDEHGLVQFSINTTNVMGTSLTVRVNYKDRSPCYGYQWVSEEHEEAHHTAYLVFSPSKSFVHLEPMSHELPCGHTQTVQAHYILNGGTLLGLKKLSFYYLIMAKGGIVRTGTHGLLVKQEDMKGHFSISIPVKSDIAPVARLLIYAVLPTGDVIGDSAKYDVENCLANKVDLSFSPSQSLPASHAHLRVTAAPQSVCALRAVDQSVLLMKPDAELSASSVYNLLPEKDLTGFPGPLNDQDDEDCINRHNVYINGITYTPVSSTNEKDMYSFLEDMGLKAFTNSKIRKPKMCPQLEHGPEGEGEGEGIPENFFGVPRYLSEDLVVQISELEGRGSVEEPHTKLRKYFPETWIWDLVVVNSAGVAEVGVTVPDTITEWKAGAFCLSEDAGLGISSTASLRAFQPFFVELTMPYSVIRGEAFTLKATVLNYLPKCIRVSVQLEASPAFLAVPVEKEQAPHCICANGRQTVSWAVTPKSLGNVNFTVSAEALESQELCGTEVPSVPEHGRKDTVIKPLLVEPEGLEKETTFNSLLCPSGGEVSEELSLKLPPNVVEESARASVSVLGDILGSAMQNTQNLLQMPYGCGEQNMVLFAPNIYVLDYLNETQQLTPEIKSKAIGYLNTGYQRQLNYKHYDGSYSTFGERYGRNQGNTWLTAFVLKTFAQARAYIFIDEAHITQALIWLSQRQKDNGCFRSSGSLLNNAIKGGVEDEVTLSAYITIALLEIPLTVTHPVVRNALFCLESAWKTAQEGDHGSHVYTKALLAYAFALAGNQDKRKEVLKSLNEEAVKKDNSVHWERPQKPKAPVGHFYEPQAPSAEVEMTSYVLLAYLTAQPAPTSEDLTSATNIVKWITKQQNAQGGFSSTQDTVVALHALSKYGAATFTRTGKAAQVTIQSSGTFSSKFQVDNNNRLLLQQVSLPELPGEYSMKVTGEGCVYLQTSLKYNILPEKEEFPFALGVQTLPQTCDEPKAHTSFQISLSVSYTGSRSASNMAIVDVKMVSGFIPLKPTVKMLERSNHVSRTEVSSNHVLIYLDKVSNQTLSLFFTVLQDVPVRDLKPAIVKVYDYYETDEFAIAEYNAPCSKDLGNADYKDDDDKGASHHHHHH
Protease Inhibition (% of WT) (ADAMTS4): 124 % of WT | Protease Inhibition (% of WT) (ADAMTS5): 145 % of WT | Protease Inhibition (% of WT) (MMP1): 67 % of WT | Protease Inhibition (% of WT) (MMP8): 33 % of WT | Protease Inhibition (% of WT) (MMP13): 88 % of WT | Protease Inhibition (% of WT) (MMP2): 27 % of WT | Protease Inhibition (% of WT) (MMP9): 20 % of WT | Protease Inhibition (% of WT) (MMP3): 27 % of WT | Protease Inhibition (% of WT) (Elastase): 93 % of WT | Protease Inhibition (% of WT) (Cathepsin G): 66 % of WT | Protease Inhibition (% of WT) (MMP7): 80 % of WT
